Measurements: patent US20090041783A1 (MOCHIDA PHARMACEUTICAL, published 2009)

How the values were obtained:
[1] = biological target: T1, human GPVI extracellular region-human Fc fusion protein (hGPVI-hFc) (human); test: ELISA on immobilised hGPVI-hFc, anti-human mu-chain detection
T1 construct: Expressed in COS-1, purified on Protein A; also called GPVI-HHH-hFc; hGPVIHHH-hFc

[2] = biological target: T2, human platelet membrane glycoprotein VI (GPVI) on human platelets (human, UniProt Q9HCN6 21-339); test: flow cytometry on human platelets, 3-4 µg/mL antibody, anti-human IgM-FITC
T2 construct: whole, on cells
T2 sequence (looked up): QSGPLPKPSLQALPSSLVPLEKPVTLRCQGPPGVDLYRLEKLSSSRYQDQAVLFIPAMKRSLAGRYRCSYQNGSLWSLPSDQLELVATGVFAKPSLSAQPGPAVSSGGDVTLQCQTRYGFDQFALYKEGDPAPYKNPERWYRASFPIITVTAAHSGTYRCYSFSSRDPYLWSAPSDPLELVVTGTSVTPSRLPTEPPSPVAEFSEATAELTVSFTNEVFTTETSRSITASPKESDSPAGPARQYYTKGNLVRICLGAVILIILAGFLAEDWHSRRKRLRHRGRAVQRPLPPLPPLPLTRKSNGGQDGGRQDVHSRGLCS
Procedure: Cynomolgus monkey and human PRPs prepared by the method described in 18-1 of EXAMPLE 18 were diluted with FACS buffer to make the platelet concentration 3.75×10⁸ cells/mL. To the diluted PRP, cF1232-37-2 (IgM) or cF1232-43-3 (IgM) prepared in the above 29-2 was added at the final concentration of 3-4 μg/mL, and stood at 25° C. for 30 minutes. After incubation, the platelet was washed with FACS buffer. Subsequently, after adding anti-human IgM-FITC (BD Biosciences Pharmingen) and standing at room temperature for 30 minutes, the platelet was washed with FACS buffer and the fluorescence intensity of the platelet was measured with flow cytometer CYTOMICS FC500 (BECKMAN COULTER). As a result, it was confirmed that both antibodies of cF1232-37-2 (IgM) and cF1232-43-3 (IgM) bind to the monkey and the human platelet.

binding result [1]: binds
binding result [2]: binds
B1: mouse/human chimeric IgM-type F1232-37-2, cF1232-37-2 (IgM) (antibody)
VH: VQLQQSGPELVRPGESVKISCKGSGYTFTDYAIHWVKLSHAKSLEWIGVISIYYDDTNYNQKFKGKATMTVDKSSSTAYLELARLTSEDSAIYYCARRRDSSGPYAMDYWGQGTSVTVSS
VL: DIVLTQSPASLAVSLGQRATISCRASESVDSYGNSFMHWYQQKPGQPPKLLIYRASNLESGIPARFSGSGSRTDFTLTINPVEADDVATYYCQQSNEDPYTFGGGTKLEIKRADAA
chain: not shown
notes: Heavy chain: V region of cF1232-37-2 with human mu-chain constant region (pTK-2820); the CDRs of both clones are printed identical; Human kappa constant region
